Measured values taken from paper PMC5816707.

Key:
TIA1 = target: T1, TIA1 (Homo sapiens (cDNA from HEK293 cells), UniProt P31483 1-386); test: EMSA
T1 sequence: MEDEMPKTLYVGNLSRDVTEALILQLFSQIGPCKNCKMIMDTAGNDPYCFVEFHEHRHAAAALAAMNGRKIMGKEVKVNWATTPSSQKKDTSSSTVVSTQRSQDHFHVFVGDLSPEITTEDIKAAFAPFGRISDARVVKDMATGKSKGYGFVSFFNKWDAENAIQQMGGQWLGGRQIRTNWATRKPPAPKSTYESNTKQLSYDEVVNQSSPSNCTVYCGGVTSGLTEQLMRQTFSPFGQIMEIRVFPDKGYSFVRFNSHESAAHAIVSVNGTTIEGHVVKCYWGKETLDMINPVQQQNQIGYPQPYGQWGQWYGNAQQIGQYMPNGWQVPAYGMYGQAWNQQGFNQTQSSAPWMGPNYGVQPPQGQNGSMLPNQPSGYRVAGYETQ

TIAL1 = target: T2, TIAL1 (Homo sapiens (cDNA from HEK293 cells), UniProt Q01085 1-375); test: EMSA
T2 sequence: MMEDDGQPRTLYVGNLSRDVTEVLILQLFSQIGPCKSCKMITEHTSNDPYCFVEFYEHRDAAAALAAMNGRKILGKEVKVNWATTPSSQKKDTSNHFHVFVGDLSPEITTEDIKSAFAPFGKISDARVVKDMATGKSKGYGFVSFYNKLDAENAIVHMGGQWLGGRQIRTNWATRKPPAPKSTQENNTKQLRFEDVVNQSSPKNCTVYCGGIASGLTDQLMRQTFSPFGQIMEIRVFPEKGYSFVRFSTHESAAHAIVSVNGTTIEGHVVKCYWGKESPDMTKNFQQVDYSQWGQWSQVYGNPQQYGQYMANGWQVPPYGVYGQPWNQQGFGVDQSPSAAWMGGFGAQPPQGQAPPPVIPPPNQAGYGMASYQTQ

AAAAAAAAAAAAAAAAAA (ssRNA) [poly(A)18]
binding result (TIA1): no binding | binding result (TIAL1): no binding
